Experimental data: publication PMC4387560 (Cell Research, 2015)

Target: T1, Scp1-WD40 (residues 567-1085) (S. pombe, UniProt O43043 567-1085)
T1 sequence (looked up): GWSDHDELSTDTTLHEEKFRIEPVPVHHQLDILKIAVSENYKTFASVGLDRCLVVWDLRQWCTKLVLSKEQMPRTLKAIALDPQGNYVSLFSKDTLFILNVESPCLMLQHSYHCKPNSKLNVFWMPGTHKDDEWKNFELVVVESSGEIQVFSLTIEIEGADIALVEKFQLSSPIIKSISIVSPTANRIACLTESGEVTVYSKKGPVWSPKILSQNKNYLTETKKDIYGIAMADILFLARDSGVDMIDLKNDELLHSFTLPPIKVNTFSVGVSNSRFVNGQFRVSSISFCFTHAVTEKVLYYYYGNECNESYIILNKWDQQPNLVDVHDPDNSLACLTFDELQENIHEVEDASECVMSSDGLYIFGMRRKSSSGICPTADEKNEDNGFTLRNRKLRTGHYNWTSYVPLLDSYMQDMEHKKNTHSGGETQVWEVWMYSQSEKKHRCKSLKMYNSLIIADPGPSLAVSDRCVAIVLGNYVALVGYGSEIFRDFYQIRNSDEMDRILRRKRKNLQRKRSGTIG
Test: pull-down

binding result: binds
B1: MBP-fused regulatory domain of Sre1 (residues 628-900) (domain or fragment, S. pombe, UniProt Q9UUD1 628-900, looked up)
chain: QHSKSSVHAELRELPECTANLIENSHADDVFSPNMVERLWVLAKCTRDSAQMSDSIISSLSDVLVLSPLEVLASWYAADLLDALLMESLSRKVEISEIEEIISLCPKNSSIIRHALLAKLVLFPENTADSLNEVLAAYKNTLDLCSQDKRKQSSVLKINLSKLFTLHSCLSLALQRLGYGDVSKRMYQEIFVPDSDADITPLSFIISWTALNTFAPICTSPKENDVVEKMAMYVRTAIGTLKIQDLKLSRKLINSCIDIGSRLQEDLGYVSSA
